Experimental data: PMC3391682, “Structure of the Glycosyltransferase EryCIII in Complex with its Activating P450 Homologue EryCII” (Journal of Molecular Biology, 2012)

Target: T1, glycosyltransferase EryCIII (UniProt A4F7P3 1-421)
T1 construct: EryCIII, glycosyltransferase that attaches TDP-D-desosamine to 3-alpha-mycarosylerythronolide B in erythromycin D biosynthesis; printed mass 48.1 kDa (47,961 Da measured, loss of the N-terminal methionine); Se-Met-labelled protein was used for phasing; also called GT EryCIII; source: E. coli BL21 (DE3) codon plus RP, co-expressed with the S. coelicolor chaperonins GroEL1, GroES and GroEL2, …
T1 sequence (looked up): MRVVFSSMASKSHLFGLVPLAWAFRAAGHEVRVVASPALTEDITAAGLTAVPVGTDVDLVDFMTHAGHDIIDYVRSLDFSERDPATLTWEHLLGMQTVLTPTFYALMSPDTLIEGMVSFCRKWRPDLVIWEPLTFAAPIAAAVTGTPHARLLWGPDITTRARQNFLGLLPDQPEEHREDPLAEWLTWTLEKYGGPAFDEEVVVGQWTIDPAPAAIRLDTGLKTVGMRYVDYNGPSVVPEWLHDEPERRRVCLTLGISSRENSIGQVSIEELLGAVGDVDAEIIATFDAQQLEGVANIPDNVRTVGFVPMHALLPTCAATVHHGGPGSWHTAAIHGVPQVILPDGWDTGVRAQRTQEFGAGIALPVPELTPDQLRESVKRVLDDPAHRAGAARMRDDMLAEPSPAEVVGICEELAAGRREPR
Test: AUC; sedimentation velocity of the co-expressed, co-purified EryCIII·EryCII complex in 2 mM DTT, 293 K, 50,000 r.p.m.; c(S) and c(M) analysis, taken together with band intensities on a denaturing polyacrylamide gel
Conditions: both partners purified

stoichiometry N: 1
B1: EryCII, activating P450 homologue (auxiliary protein) of EryCIII (natural protein)
chain: MTTTDRAGLGRQLQMIRGLHWGYGSNGDPYPMLLCGHDDDPQRRYRSMRESGVRRSRTETWVVADHATARQVLDDPAFTRATGRTPEWMRAAGAPPAEWAQPFRDVHAASWEGEVPDVGELAESFAGLLPGAGARLDLVGDFAWQVPVQGMTAVLGAAGVLRGAAWDARVSLDAQLSPQQLAVTEAAVAALPADPALRALFAGAEMTANTVVDAVLAVSAEPGLAERIADDPAAAQRTVAEVLRLHPALHLERRTATAEVRLGEHVIGEGEEVVVVVAAANRDPEVFAEPDRLDVDRPDADRALSAHRGHPGRLEELVTALATAALRAAAKALPGLTPSGPVVRRRRSPVLRGTNRCPVEL
notes: printed mass 40.7 kDa; also called helper protein
